The target in test [1] is GFP-His6 (eGFP) (Aequorea victoria) [GFP: P42212]. Kind of test: label under gel lane; legend: in vitro Kd for GFP by SPR; the asterisk is not explained on the sheet. A general note: In SPR one partner is held on a chip, and binding of the other changes the refractive index at the surface.
Test [2] has as its target S. cerevisiae Nup84-GFP (S. cerevisiae) (UniProt P52891). Kind of test: time course of Nup84-GFP isolation from yeast with dimer-conjugated magnetic beads, Coomassie band quantification.

The term Kd denotes a measure of binding affinity in units of concentration. In test [1], “GFP-Trap nanobody (ChromoTek GmbH) (VHH)” returned a Kd of 230 pM.
For the substance “LaG16-LaG2 fusion with a flexible glycine-rich linker (G4S)”, in test [2], the relative yield of affinity isolation, percent of maximum, after 5 minutes amounted to 80% and the relative yield of affinity isolation, percent of maximum, after 10 minutes was determined as 90%.

Source of the values: US20170212130A1.
